# Source: patent US20240181007A1, “COMPOSITIONS AND METHODS FOR TREATING PULMONARY HYPERTENSION” (Acceleron Pharma Inc., priority 2021, published 2024)
# T1: GDF8 (UniProt O14793 267-375)
# T1 construct: also called Growth and differentiation factor-8; myostatin
# T1 sequence (looked up): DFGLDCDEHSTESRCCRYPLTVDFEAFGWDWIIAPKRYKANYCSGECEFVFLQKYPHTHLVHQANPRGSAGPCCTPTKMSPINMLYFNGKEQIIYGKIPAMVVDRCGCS
# T2: GDF3 (UniProt Q9NR23 251-364)
# T2 sequence (looked up): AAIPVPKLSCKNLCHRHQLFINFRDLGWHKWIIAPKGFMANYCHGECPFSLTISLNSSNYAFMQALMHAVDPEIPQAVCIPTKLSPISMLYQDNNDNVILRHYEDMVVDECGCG
# T3: BMP9 (UniProt Q9UK05 320-429)
# T3 sequence (looked up): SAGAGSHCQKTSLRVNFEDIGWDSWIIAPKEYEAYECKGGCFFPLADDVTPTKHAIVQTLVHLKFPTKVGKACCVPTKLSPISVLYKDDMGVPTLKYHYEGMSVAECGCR
# T4: activin B (UniProt P09529 293-407)
# T4 sequence (looked up): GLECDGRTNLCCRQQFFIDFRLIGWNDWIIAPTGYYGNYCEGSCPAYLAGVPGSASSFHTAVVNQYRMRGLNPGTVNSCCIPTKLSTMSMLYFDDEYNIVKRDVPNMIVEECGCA
# T5: BMP10 (UniProt O95393 317-424)
# T5 sequence (looked up): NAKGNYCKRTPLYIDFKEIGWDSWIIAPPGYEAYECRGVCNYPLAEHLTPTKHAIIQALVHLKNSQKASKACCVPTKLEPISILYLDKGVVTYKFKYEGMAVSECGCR
# T6: GDF11 (UniProt O95390 299-407)
# T6 construct: also called Growth and differentiation factor-11; BMP11
# T6 sequence (looked up): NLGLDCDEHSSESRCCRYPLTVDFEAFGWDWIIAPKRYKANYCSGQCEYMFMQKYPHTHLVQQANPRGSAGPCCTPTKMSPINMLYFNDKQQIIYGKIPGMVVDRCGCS
# T7: activin A (UniProt P08476 311-426)
# T7 construct: Soluble ligand injected in SPR or added in the reporter assay
# T7 sequence (looked up): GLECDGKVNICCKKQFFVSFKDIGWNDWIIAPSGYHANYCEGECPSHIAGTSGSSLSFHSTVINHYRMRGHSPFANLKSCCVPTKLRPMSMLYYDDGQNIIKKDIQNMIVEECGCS
# T8: BMP6 (UniProt P22004 382-513, limits assumed)
# T8 sequence (looked up): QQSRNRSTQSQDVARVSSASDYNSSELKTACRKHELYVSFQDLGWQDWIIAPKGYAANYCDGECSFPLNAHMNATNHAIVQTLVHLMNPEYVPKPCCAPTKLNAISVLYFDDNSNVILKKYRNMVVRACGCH
# Key:
# [1] = Muscle-building activity in vivo; conditions: material from CHO, HEK293 and COS cells; variability in potency was observed
# GDF8 = biological target: T1, GDF8; test: SPR (Biacore), fusion protein captured by anti-Fc antibody, ligand injected, 37 C
# Protocol: (§1) A Biacore™-based binding assay was used to compare the ligand binding kinetics of an ActRIIB-Fc:ActRIIB(L79E)-Fc heterodimer with those of unmodified ActRIIB-Fc homodimer. Fusion proteins were captured onto the system using an anti-Fc antibody. Ligands were then injected and allowed to flow over the captured receptor protein at 37° C. Results are summarized in the table below, in which ligand off-rates (kd) most indicative of effective ligand traps are denoted in bold.
# GDF3 = biological target: T2, GDF3; test: as above
# Protocol: as §1
# BMP9 = biological target: T3, BMP9; test: as above
# Protocol: as §1
# activin B = biological target: T4, activin B; test: as above
# Protocol: as §1
# BMP10 [2] = biological target: T5, BMP10; test: as above
# Protocol: as §1
# GDF11 = biological target: T6, GDF11; test: as above
# Protocol: as §1
# activin A [3] = biological target: T7, activin A; test: as above
# Protocol: as §1
# BMP6 = biological target: T8, BMP6; test: as above
# Protocol: as §1
# BMP10 [4] = biological target: T5, BMP10; test: SPR (Biacore), 37 C
# Protocol: as §1
# activin A [5] = biological target: T7, activin A; test: SPR (Biacore), 37 C
# Protocol: as §1
molecule,measurement,setting,value
ActRIIB-G1Fc: extracellular domain of human ActRIIB fused to a human G1Fc domain with a three-glycine linker; SEQ ID NO: 5,muscle-building activity in vivo,[1],muscle-building activity in vivo
"ActRIIB-Fc:ActRIIB(L79E)-Fc heterodimer (Fc fusion, The ActRIIB extracellular domains and linkers are the same in both pairs; also called ActRIIB-Fc:ActRIIB(L79E)-Fc heteromer) chain 1: GRGEAETRECIYYNANWELERTNQSGLERCEGEQDKRLHCYASWRNSSGTIELVKKGCWEDDFNCYDRQECVATEENPQVYFCCCEGNFCNERFTHLPEAGGPEVTYEPPPTAPTGGGTHTCPPCPAPELLGGPSVFLFPPKPKDTLMISRTPEVTCVVVDVSHEDPEVKFNWYVDGVEVHNAKTKPREEQYNSTYRVVSVLTVLHQDWLNGKEYKCKVSNKALPAPIEKTISKAKGQPREPQVYTLPPSREEMTKNQVSLTCLVKGFYPSDIAVEWESNGQPENNYDTTPPVLDSDGSFFLYSDLTVDKSRWQQGNVFSCSVMHEALHNHYTQKSLSLSPG chain 2: GRGEAETRECIYYNANWELERTNQSGLERCEGEQDKRLHCYASWRNSSGTIELVKKGCWLDDFNCYDRQECVATEENPQVYFCCCEGNFCNERFTHLPEAGGPEVTYEPPPTAPTGGGTHTCPPCPAPELLGGPSVFLFPPKPKDTLMISRTPEVTCVVVDVSHEDPEVKFNWYVDGVEVHNAKTKPREEQYNSTYRVVSVLTVLHQDWLNGKEYKCKVSNKALPAPIEKTISKAKGQPREPQVYTLPPSRKEMTKNQVSLTCLVKGFYPSDIAVEWESNGQPENNYKTTPPVLKSDGSFFLYSKLTVDKSRWQQGNVFSCSVMHEALHNHYTQKSLSLSPGK",Kd,GDF8,0.15 nM
same,koff,GDF8,0.0005 s⁻¹
same,kon,GDF8,3.4e+06 M⁻¹ s⁻¹
same,Kd,GDF3,10 nM
same,koff,GDF3,0.0059 s⁻¹
same,kon,GDF3,580000 M⁻¹ s⁻¹
same,Kd,BMP9,> 2.8 nM
same,Kd,activin B,0.025 nM
same,koff,activin B,0.00021 s⁻¹
same,kon,activin B,8.3e+06 M⁻¹ s⁻¹
same,Kd,BMP10 [2],0.042 nM
same,koff,BMP10 [2],0.002 s⁻¹
same,kon,BMP10 [2],4.8e+07 M⁻¹ s⁻¹
same,Kd,GDF11,0.009 nM
same,koff,GDF11,0.00036 s⁻¹
same,kon,GDF11,4e+07 M⁻¹ s⁻¹
same,Kd,activin A [3],0.17 nM
same,koff,activin A [3],0.0015 s⁻¹
same,kon,activin A [3],8.8e+06 M⁻¹ s⁻¹
same,Kd,BMP6,0.056 nM
same,koff,BMP6,0.018 s⁻¹
same,kon,BMP6,3.3e+08 M⁻¹ s⁻¹
same,fold faster off-rate compared to ActRIIB-Fc homodimer,BMP10 [4],~10 fold
same,fold faster off-rate compared to ActRIIB-Fc homodimer,activin A [5],~10 fold
